Entries after “also recorded” stand apart in the source; their conditions may differ.
Experiments:
Axl^+ cells = experiment: Flow cytometry binding of hybridoma antibody clones to Axl+ cells; type: cell-based; conditions: hybridoma clone selection
Method: For flow cytometry, the adherent cells in culture were washed with PBS, detached by trypsin (0.25%) treatment for 1 min and hitting culture dish for full detachment. Trypsin was quenched by adding into the tissue flask the complete medium followed by washing the cells with PBS. During the washing steps, the cells were collected by centrifugation at 200 g for 5 min. The antibody was diluted for total concentration in PBS containing 0.02% bovine serum albumin (BSA).
Cell staining was performed using 200 μL of cell suspension comprising 10^5 cells for 20 min at room temperature. After two washing steps with PBS/0.02% BSA, the cells were resuspended in 200 μL incubated with an APC-conjugated donkey anti-mouse IgG (H+L) secondary antibody (Jackson Laboratories, Cat. no. 715-136-150) at concentration 2 μg/mL for 20 min at room temperature. The stained cells were washed twice with PBS/0.02% BSA and kept on ice before analysis using a BD LSR Fortessa cell analyzer (BD Biosciences).

MDA-MB-231 cells = experiment: Treatment of established stellate-shaped 3D tumour masses; type: cell-based, human; conditions: MDA-MB-231, 72 hours, versus control IgG
Method: Effect of anti-Axl antibodies 10C9 and 10G5 on established 3D organotypic tumour masses. The developed 9-days old stellate-shaped 3D organoid masses of human mammary carcinoma cells (MDA-MB-231) were treated with either control IgG or anti-Axl antibodies 10C9 and 10G5 for 72 hours. Images were captured using bright field; arrows indicate apoptotic, degrading stellate-shaped cells.
MDA-MB-231 cells were grown on extracellular matrix and allowed to form the highly aggressive stellate shaped morphology. Stellate-shaped tumour masses were then treated with the control IgG and antibodies 10C9 and 10G5, as described in EXAMPLE 7.

Axl receptor protein = biological target: T1, Axl receptor protein (Homo sapiens, UniProt P30530); experiment: Western blot analysis of Axl receptor protein expression after antibody treatment; type: cell-based; conditions: MDA-MB-231 cells, 100 μg/mL, 20 hrs, versus irrelevant IgG or MAb#3
T1 construct: endogenous in cells; host or cells: MDA-MB-231
Method: Western blot analysis illustrating effect of treatment with either antibodies of multikinase inhibitor Foretinib on Axl receptor expression. Highly aggressive human mammary carcinoma cells MDA-MB-231 were treated with either antibodies (irrelevant IgG control and anti-Axl MAbs 10C9, 10G5 and MAb#3) or Foretinib for […] before loading on SDS-PAA gel. The levels of actin protein were used as loading controls.
The expression of Axl receptor protein in MBA-MD-231 cells treated with different antibodies was examined by Western blot analysis. The cells were seeded in a 6-well plate at density of 5×10^5 cells per well and cultured overnight before treatment initiation. The cells were treated for 20 hrs in the presence of isotype control (mouse IgG2b), anti-Axl antibodies (10C9, 10G5 and MAb#3) at concentrations of 100 μg/mL or multikinase inhibitor Foretinib (targets Met, Ron, Axl, Tie-2, and VEGFR2) at a concentration of 0.5 μM followed by harvesting by centrifugation at 1,200 rpm for 5 min and washing with sterile PBS. The cells were collected by centrifugation and resuspended in NP40-lysis buffer followed by 30 min incubation on ice. The cell lysates were cleared by centrifugation (12,000 rpm, 4° C., 5 min) and the protein concentrations were determined using BCA protein assay. […]

[1] = tested on: cyno-Axl (Axl receptor from cynomolgus monkey); experiment: Biacore binding analysis on immobilized cyno-Axl; parameters: species or system Macaca fascicularis; conditions: 10 μg/mL, 25° C.
Chain of cyno-Axl (Axl receptor from cynomolgus monkey) (as listed by the source): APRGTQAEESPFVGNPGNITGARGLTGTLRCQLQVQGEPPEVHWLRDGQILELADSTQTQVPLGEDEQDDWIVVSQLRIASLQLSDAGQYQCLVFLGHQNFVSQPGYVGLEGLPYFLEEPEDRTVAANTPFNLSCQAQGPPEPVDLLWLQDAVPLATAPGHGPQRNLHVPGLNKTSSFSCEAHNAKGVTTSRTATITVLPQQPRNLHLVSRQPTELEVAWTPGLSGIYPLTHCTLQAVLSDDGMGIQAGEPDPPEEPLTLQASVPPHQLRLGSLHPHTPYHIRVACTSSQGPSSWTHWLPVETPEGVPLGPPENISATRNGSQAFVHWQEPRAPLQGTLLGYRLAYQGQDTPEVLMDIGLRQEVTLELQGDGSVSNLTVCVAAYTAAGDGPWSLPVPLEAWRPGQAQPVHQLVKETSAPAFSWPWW
Method: The sequence of Axl receptor from cynomolgus monkey (Macaca fascicularis; SEQ ID NO.43) was retrieved from WO2009062690A1. Based on the sequence, recombinant extracellular domain of cyno-Axl was generated by transient expression in CHO cells as a fusion protein with human Fc. The recombinant cyno-Axl-Fc was purified to homogeneity using Protein A-Sepharose (GE Healthcare). The binding experiments were performed using Biacore 3000 instrument (GE Healthcare) at 25° C. The soluble recombinant antigens corresponding to human Axl (rhAxl-Fc chimera; R&D Systems, Cat. no. 154-AL) and cyno-Axl were immobilized on the surface of CM5 sensor chip using amine coupling at the surface density of 775 and 880 RU, respectively. The Biacore runs were performed in an automatic mode using Binding analysis wizard.
The sample containing either MAb 10C9, MAb 10G5 or human Axl-specific MAb 5F11 (control) at concentration 10 μg/mL in HBS-EP buffer (GE Healthcare) was injected over the surfaces with immobilized antigens at flow rate of 30 μL/min for 3 min (association) followed by 5 min dissociation.

binding to Axl from cynomolgus monkey ([1]; listed as 1009)	Molecule	binding to Axl^+ cells in flow cytometry (Axl^+ cells)	effect on established stellate-shaped 3D tumour masses (MDA-MB-231 cells)	Axl protein level (Western blot) (Axl receptor protein)	binding to Axl from cynomolgus monkey [1]
	10G5: mouse anti-Axl monoclonal antibody from hybridoma WR-10G5-E5, IgG1; VH SEQ ID NO: 21, VL SEQ ID NO: 22 (antibody, listed as Mus musculus, V domains shown) VH: QVQLQQSGAELVRPGASVKLSCKASGYSFTDFYINWVRQRPGQGLEWIARIFPGGDNTYYNEKFKGKATLTAEESSSTAYIQLSSLTSEDSAVYFCARRGLYYAMDYWGQGISVTVSS VL: DVLMTQTPLSLPVSLGDQASISCRSSQSLVHSNGIPYLHWYLQKPGQSPKLLIYRVSNRFSGVPDRFSGSGSGTDFTLKISRVEAEDLGVYFCSQGTHVPPTFGGGTKLEIK	specific binding	degradation of stellate patterns	significant reduction of Axl protein	bind strongly; also recorded: strong and specific interaction
bind strongly	10C9: mouse anti-Axl monoclonal antibody from hybridoma UT-10C9-B9, IgG2b; VH SEQ ID NO: 3, VL SEQ ID NO: 4 (antibody, listed as Mus musculus, V domains shown) VH: QVQLQQPGPELVKPGASVKISCKTSDYNFTRYYIHWVKQRPGQGLEWIGWIYPGTGDSKYNEKFKGRATLTADTSSSTAYMQLSSQTSEDSAVYFCARNGNYWYFDVWGAGTAVTVSS VL: DIVMTQAAPSGPVTPGESVSISCRSSKSLLHSNGNTYLYWFLQRPGQSPQLLIYRMSNLASGVPDRFSGSGSGTAFTLRISRVEAEDVGIYYCMQHREYPFTFGGGTKLEIK	specific binding	degradation of stellate patterns	significant reduction in the amount of Axl receptor protein	strong and specific interaction

From patent publication US10208121B2, “Anti-Axl antagonistic antibodies” (BERGEN TEKNOLOGIOVERFORING AS, priority 2014, dated 2019)
